Source: US20210030857A1 (NGM BIOPHARMACEUTICALS, published 2021)

T1: human beta klotho expressed on cells (human, UniProt Q86Z14 1-1044)
T1 construct: also called HuKLB overexpressing cells; Human KLB
T1 sequence: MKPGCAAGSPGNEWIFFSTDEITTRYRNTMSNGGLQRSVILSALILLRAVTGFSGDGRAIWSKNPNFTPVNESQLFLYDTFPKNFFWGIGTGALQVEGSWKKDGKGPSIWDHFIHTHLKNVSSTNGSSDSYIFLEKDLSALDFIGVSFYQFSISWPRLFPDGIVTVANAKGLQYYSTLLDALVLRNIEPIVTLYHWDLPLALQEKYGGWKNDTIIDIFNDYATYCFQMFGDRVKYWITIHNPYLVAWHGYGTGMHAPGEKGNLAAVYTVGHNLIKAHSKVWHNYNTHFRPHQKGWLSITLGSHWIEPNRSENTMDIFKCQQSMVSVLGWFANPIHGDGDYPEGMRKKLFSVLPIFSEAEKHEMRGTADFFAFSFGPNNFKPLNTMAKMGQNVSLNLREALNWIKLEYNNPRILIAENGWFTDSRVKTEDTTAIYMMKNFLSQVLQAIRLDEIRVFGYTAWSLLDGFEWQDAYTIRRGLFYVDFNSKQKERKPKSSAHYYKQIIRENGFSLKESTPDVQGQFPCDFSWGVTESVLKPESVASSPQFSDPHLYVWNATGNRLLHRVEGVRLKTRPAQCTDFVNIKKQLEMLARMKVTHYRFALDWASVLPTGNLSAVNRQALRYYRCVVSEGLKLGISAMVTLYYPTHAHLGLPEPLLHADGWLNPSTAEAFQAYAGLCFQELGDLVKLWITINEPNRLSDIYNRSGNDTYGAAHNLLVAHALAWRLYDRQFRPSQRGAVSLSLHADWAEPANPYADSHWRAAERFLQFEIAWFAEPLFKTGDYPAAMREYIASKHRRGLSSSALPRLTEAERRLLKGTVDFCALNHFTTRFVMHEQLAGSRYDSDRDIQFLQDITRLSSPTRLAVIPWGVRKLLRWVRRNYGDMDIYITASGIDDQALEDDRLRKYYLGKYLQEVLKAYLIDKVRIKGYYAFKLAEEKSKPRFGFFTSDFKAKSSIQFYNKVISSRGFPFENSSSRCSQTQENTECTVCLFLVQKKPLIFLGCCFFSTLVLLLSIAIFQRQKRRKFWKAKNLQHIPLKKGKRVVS

B1: humanized 5H23 antibody (VH SEQ ID NO: 271 and VL SEQ ID NO: 276) (antibody, V domains shown)
VH: QVQLQQSGAEVKKPGASVKVSCKASGYTFTSYDINWVRQAPGQGLEWIGWIYPGDGSTKYNEKFKGKATITRDTSASTAYMELSSLRSEDTAVYFCARSDYYGSRSFAYWGQGTLVTVSS
VL: DIVMTQSPDSLAVSLGERATINCRASKSVSTSGYVYMHWYQQKPGQPPKLLIYLASYLESGVPDRFSGSGSGTDFTLTISSVQAEDVAVYYCQHSRDLTFPFGGGTKLEIK
notes: also called h5H23; h5H23 (Prep 1)
B2: negative control antibody, anti-keyhole limpet hemocyanin (KLH) antibody (antibody, human IgG1, kappa, V domains shown)
VH: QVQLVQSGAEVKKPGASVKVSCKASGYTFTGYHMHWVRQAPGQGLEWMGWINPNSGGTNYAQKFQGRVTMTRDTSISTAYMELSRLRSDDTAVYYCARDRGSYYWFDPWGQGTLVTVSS
VL: DIQMTQSPSSLSASVGDRVTITCRASQGIRNDLGWYQQKPGKAPKRLIYAASSLQSGVPSRFSGSGSGTEFTLTISSLQPEDFATYYCLQHNSYPLTFGGGTKVEIKR
notes: also called Neg; Control; anti-KLH antibody

Legend:
Test in all cases: FACS on transfected Expi293 cells, antibody 1 µg/ml, labelled anti-human Fc
[1] = target: T1, human beta klotho expressed on cells
Procedure: (§1) Studies were performed in order to localize the binding site on human KLB of anti-beta klotho antibodies in the 5H23 epitope bin, including 5H23 as described in Example 3, with sequences shown in Tables 1-10 and FIGS. 1-3, and human anti-beta klotho antibodies in the 5H23 epitope bin, such as humanized 5H23 antibodies (e.g., VH SEQ ID NO: 271 and VL SEQ ID NO: 276). For example, FACS-based binding assays for domain mapping were performed on Expi293 cells (Life Technologies, A14635) that were transiently transfected with plasmids encoding variants of KLB: human, mouse, cynomolgus, a chimeric version in which the KL1 domain sequence of mouse KLB (M1-F506) replaces the KL1 domain of human KLB (M1-F508) to create mouse-human KLB (SEQ ID NO: 376), and a second chimera in which the human KL1 sequence (M1-F508) replaces the KL1 domain of mouse KLB (M1-F506) to create human-mouse KLB (SEQ ID NO: 374). Additionally, the expression vector pYD7 harboring no KLB sequence was transfected as a negative control.
(§2) In some studies, binding of a purified sample of a humanized 5H23 antibody (e.g., VH SEQ ID NO: 271 and VL SEQ ID NO: 276) to KLB variants was determined by FACS analysis. […] After washing with PBS/1% BSA/0.1% azide, transfected cells were then co-incubated with labeled anti-human Fc (Jackson lmmunoresearch) for 30 minutes at 4° C. After washing with PBS/1% BSA/0.1% azide, cells were acquired on flow cytometer (FACS Calibur) and analyzed by cytometric software (FlowJo). To display the resulting data, graphs plotting the number of cells as a function of fluorescence intensity were generated, and the median fluorescence intensity (MFI) was determined for each sample as shown in Table 30.

[2] = target: T2, mouse-human KLB chimeric protein (mouse KLB (M1-F506)-human KLB (S509-S1044)) on cells (mouse/human chimera, UniProt Q86Z14 1-1044 (human entry))
T2 construct: also called Mouse-Human chimeric KLB; chMoHu
Procedure: as §1, §2

[3] = target: T3, human-mouse KLB chimeric protein (human KLB (M1-F508)-mouse KLB (P507-S1043)) on cells (human/mouse chimera, UniProt Q99N32 1-1043 (mouse entry))
T3 construct: also called Human-Mouse chimeric KLB; chHuMo
Procedure: as §1, §2

Row | Binder | Mean Fluorescence intensity [1] | Mean Fluorescence intensity [2] | Mean Fluorescence intensity [3]
1 | B1 | 865 MFI | 26.1 MFI | 9.29 MFI
2 | B2 | 6.2 MFI | 5.44 MFI | 6.01 MFI
